We go through 2 proteins from paper doi:10.1101/2020.01.27.920827 (bioRxiv, 2020).

Data set [1] deals with the molecule itself. Description: SDS-resistant oligomer bands on SDS-PAGE after liposome co-sedimentation.
Data set [2] deals with the molecule itself. Description: FRET or BRET. Background: In BRET a luciferase serves as donor, and the signal depends on an acceptor being close.

B1: epsin1 ENTH domain, wild type (Rat Epsin1 WT ENTH 1-164) (domain or fragment)
chain: MSTSSLRRQMKNIVHNYSEAEIKVREATSNDPWGPSSSLMSEIADLTYNVVAFSEIMSMIWKRLNDHGKNWRHVYKAMTLMEYLIKTGSERVSQQCKENMYAVQTLKDFQYVDRDGKDQGVNVREKAKQLVALLRDEDRLREERAHALKTKEKLAQTATASSAA
Regarding B1, the binding result in data set [1] is given as “binds”.

B2: ENTH WT (C96A A155C) domain, labelled with Atto488 maleimide or Atto532 maleimide (domain or fragment)
chain: MSTSSLRRQMKNIVHNYSEAEIKVREATSNDPWGPSSSLMSEIADLTYNVVAFSEIMSMIWKRLNDHGKNWRHVYKAMTLMEYLIKTGSERVSQQAKENMYAVQTLKDFQYVDRDGKDQGVNVREKAKQLVALLRDEDRLREERAHALKTKEKLCQTATASSAA
modifications: Atto488 maleimide (donor population) or Atto532 maleimide (acceptor population), by cysteine modification
Take B2: in data set [2], the binding result is “binds”.
